These are literature values, as cited in paper PMC5559722.

In general, Kd refers to the constant that tells how readily two partners part at equilibrium.

Read-outs that look alike come from different tables or passages of the source.

Data set [1] has as its target p97 N-domain (UniProt P55072).
Data set [2] deals with p97 N-domain (UniProt P55072). This is another data set of the same source.
Data set [3] deals with p97 N-domain (UniProt P55072). Nature of the data set: ITC. For orientation: ITC needs no label: the signal is the heat of the interaction.
In data set [4] the target is p97 C-terminal peptide (Homo sapiens) (UniProt P55072).
Another data set has as its target RNF31 PUB (Homo sapiens) (UniProt Q96EP0).
Data set [5] has as its target p97 N-domain (UniProt P55072). The source holds these as a separate data set.

Take p47 UBX (from UniProt Q9UNZ2): the dissociation constant Kd with p97 N-domain [1] is 1000 nM.
For FAF1 UBX (from UniProt Q9UNN5), the Kd with p97 N-domain [2] was 1000 nM.
As for OTU1 UBXL (from UniProt Q5VVQ6), in the data set with p97 N-domain [3], the equilibrium dissociation constant (Kd) was 700 nM.
On to RNF31 PUB (from UniProt Q96EP0), for which the Kd in data set [4] is 50000 nM.
Consider OTULIN (from UniProt Q96BN8), for which the dissociation constant (Kd) with RNF31 PUB (Homo sapiens) is 300 nM.
For NPL4 UBXL (from UniProt Q8TAT6), in the data set with p97 N-domain [5], the equilibrium dissociation constant (Kd) was 18000 nM.
